This is an account of results in US11898183B2, “Programmed microorganisms to attenuate a disease” (priority 2020, dated 2024).

B1: CYP719 Cinnamomum micranthum: CYP719 from Cinnamomum micranthum (protein)
chain: MEAIWTAVAIGIAAAVLMAFRGRQRQRLSRKPTQWPPGPTRLPLIGNMHQILLKGGDPFHVAINKLAQVYGPLMTVWFGTRQPTIIVSDHNLVWEVLVSKSADYAAREIPITLKPSLADFRTIVSSNAGPLWHSLRRGLQNGAIGPHSLSLQAPFQESDMAQMINNMIKEANLNGGVVKPFPHIRRAIIKLLARICFGCDFSDEEFDATMDFMVEEALRYSDDSRILDTFPPARFLPSVKRAVMQMEKVKLRLMECIGRPLDSPLPPTCYAHFLLSQSFPREVAIFSIFELFLLGVDSTGSTTMWGLGLLMQNQEAQQKLYQEIREHASCNEKGVVKVEELGKLEYLQAVAKETMRMKPIAPLAVPHQAARDTTLDGLHVAEGTTVLANLYALHYDPKVWDEPERFKPERFLESSKEFLGKRGQYSFLPFGAGMRACAGMEVGKLQLPFAICNLVNAFNWSNVVEKEAPKLIEGFSFILSMKTPLEARIVPRGI
modifications: Depicts the nucleic acid sequence encoding CYP719 of Cinnamomum micranthum
B2: DIRPLR Linum usitatissimum: Bifunctional pinoresinol-lariciresinol reductase (DIRPLR) from Linum usitatissimum (protein, listed as Linum usitatissimum)
chain: MGRCRVLVVGGTGYIGKRIVKASIEHGHDTYVLKRPETGLDIEKFQLLLSFKKQGAHLVEASFSDHESLVRAVKLVDVVICTVSGAHSRSLLLQLKLVEAIKEAGNVKRFIPSEFGMDPARMGDALEPGRETFDLKMVVRKAIEDANIPHTYISANCFGGYFVGNLSQLGPLTPPSDKVTIYGDGNVKVVYMDEDDVATYTIMTIEDDRTLNKTMYFRPPENVITHRQLVETWEKLSGNQLQKTELSSQDFLALMEGKDVAEQIVIGHLYHIYYEGCLTNFDIDADQDQVEASSLYPEVEYTRMKDYLMIYL
B3: SDH Juglans regia: Secoisolariciresinol dehydrogenase (SDH) from Juglans regia (protein, listed as Juglans regia)
chain: MNGTSSLLAPIAKRLAGKVALITGGASGIGESTARLFAEQGAKVIIADVQDELGFSVSQDKSINGAISYIHCDVTSESDVQNAVNTAVSKHGKLDIMFNTAGCTGQNKASILDHEQKDYKTVFDVNVLGSFLGAKHAAKVMIPVKRGTILFTASCVTESHGLASHSYTASKHAVVGLTKNLCVELGQYGIRVNCISPYGAATPLFLKGMGIDKKEKAEEILSSAANLKGPVLEAGDLAEAALFLASEESKYVSVLNLVVDGGYSATNVAFTETIQKFFT
B4: OMT Sinopodophyllum hexandrum: O-methyltransferase 3 (OMT) from Sinopodophyllum hexandrum (protein)
chain: MEMAPTMDLEIRNGNGYGDSGEELLAAQAHIYNHIFNFISSMALKCAVELNIPEILHNHQPKAVTLSELVQALQIPQAKSACLYRLLRILVHSGFFAITKIQSEGDEEGYLPTLSSKLLLKNHPMSMSPCLLGLVNPTMVAPMHFFSDWFKRSDDMTPFEATHGASLWKYFGETPHMAEIFNEAMGCETRLAMSVVLKECKGKLEGISSLVDVGGGTGNVGRAIAEAFPNVKCTVLDLPQVVGNLKGSNNLEFVSGDMFQFIPPADVVFLKWILHDWNDEECIKILKRCKEAIPSKEEGGKLIIIDMVVNDHNKGSYESTETQLFYDLTLMALLTGTERTETEWKKLFVAAGFTSYIISPVLGLKSIIEVFP
modifications: Depicts the nucleic acid sequence encoding O-methyltransferase 3 (OMT) of Sinopodophyllum hexandrum
notes: O-methyltransferase 3 (OMT) from Sinopodophyllum hexandrum
B5: CCoAOMT Chamaecyparis formosensis: Caffeoyl CoA O-methyltransferase (CCoAOMT) from Chamaecyparis formosensis (protein)
chain: MATVEATKDSTQQVSRHQEVGHKSLLQSDALYQYILETSVYPREPEPMRELREITAKHPWNLMTTSADEGQFLHLLLKLINAKNTMEIGVYTGYSLLSTALALPDDGKILAMDINRENYELGLPVIQKAGVAHKIDFREGPALPVLDQMLENKEMHGSFDFIFVDADKDNYLNYHKRLIDLVKIGGVIGYDNTLWNGSVVAPPDAPMRKYVRYYRDFVIELNKALAADPRIEISQIPVGDGITLCRRII
modifications: Depicts the nucleic acid sequence of Caffeoyl CoA O-methyltransferase (CCoAOMT) of Chamaecyparis formosensis
B6: 2-ODD Nitrospira moscoviensis: 2-oxoglutarate/Fe(II)-dependent dioxygenase (2-ODD) from Nitrospira moscoviensis (protein, listed as Nitrospira moscoviensis)
chain: MVSNMAMGITEAVDRAVAALDVDRLHREYWEQNEFLVIRQFLPRAFVEEVLVPQAQGVKTELNRNYIPGHKKGGSVSYYTVRRRAPLFLDLYRSDSFRAFLDRLVDAKLLLCPENDPHSCALYYYTEPGDHIGFHYDTSYYKGARYTILMGLVDRSTQCKLVCELFKDHPTKAPQRLELITEPGDMVIFNGDKLWHAVTPLGEGEERIALTMEYVTNPEMGAFKRLYSNLKDSFAYFGLKTVFKQALAKKSS
B7: CYP71 Cinnamomum micranthum: CYP71 from Cinnamomum micranthum (protein)
chain: MALLLSLLFFASALIFLLKLNGQRANKTDVPPSPPKLPLIGNLHQLGTLPHRSLRSLAGKYGPLMLLYLGRIPTLIVSSEEMAEQIMKTHDLIFASRPSITAAKELLYGCTDLAFASYGEYWRQVRKMCVLELLSIKRVNSFRSIMEEEVGLMIERISQSSSTGAAVNLAELFLSLTGGTIARAALGKKYEGEAEEGRNKYADLVKELHALLGAFSVGDYFPSLAWVDVVTGLHGKLKRNSRELDRFLDQVIEHHLMRPLDGCDVGEHTDLVDVMLQVQKDSNRDIHLTRDNIKAIILDMFSAGTDTTALTLEWVMAELAKHPNVMKKAQGEVRRVVDVKANISEEHLCQLNYMKSIIKETLRLHPPAPLLVPRESTTNVKIQNFHIPPKTRVFINAYAIGRDPTSWENPEEFLPERFANNSVDFKGQDFQFIPFGAGRRGCPGLSFAITSLELALANLLYWFDWELPQGVTEEDLDMSEALGITVHKKLPLYLVPKNHFS
modifications: Depicts the nucleic acis sequence encoding CYP71 of Cinnamomum micranthum
B8: 2-ODD Nitrospira japonica: 2-oxoglutarate/Fe(II)-dependent dioxygenase (2-ODD) from Nitrospira japonica (protein)
chain: MMGGAMTTQTLDTIAEAVDQAVARLDFDRLHREYWEQNEFLVIPQFLDRAMVEEWLVPQAQGVKGDLNRNYIPGHKKGGSVSYYTVMEKAPRFLDLYRSQVFIEFLSRLSHAKLRLCPDNDPHSCALYYYTEPGDHIGFHYDTSYYKGSRYTILMGLVDQSTHCKLVCELFKDDPVRPSKRLELITQPGDMVIFNGDKLWHAVTPLGPNEERIALTMEYVTNPDMGTFKRLYSNLKDSFAYFGLRAVFKRALSLPRR
modifications: Depicts the nucleic acid sequence of 2-oxoglutarate/Fe(II)-dependent dioxygenase (2-ODD) of Nitrospira japonica
notes: 2-oxoglutarate/Fe(II)-dependent dioxygenase (2-ODD) from Nitrospira japonica
B9: CCoAOMT Eleocharis dulcis: Caffeoyl CoA O-methyltransferase (CCoAOMT) from Eleocharis dulcis (protein)
chain: MSTTTTTQTKTETQSQTGAQNGAEQQTRHSEVGHKSLLQSDALYQYILETSVYPREPECMKELRDITAKHPWNLMTTSADEGQFLNLLLKLIGAKKTMEIGVYTGYSLLATALAIPEDGTILAMDINRENYELGLPVIEKAGVAHKIDFREGPALPVLDQLIEDPANLGSFDFIFVDADKDNYLNYHKRLIELVKVGGVIGYDNTLWNGSVVLPADAPMRKYIRYYRDFVLELNKALAADPRIEISQLPVGDGITLCRRVK
modifications: Depicts the nucleic acid sequence encoding Caffeoyl CoA O-methyltransferase (CCoAOMT)

In the series the test system is pathway specific substrates. The series can be described thus: Enzyme functionality of pathway enzyme homologs and fusion constructs in lysed E. coli cell extracts, product by HPLC. Type of series: biochemical, E. coli BL21. The conditions noted are these: protein expressed in E. coli, lysed cell extract, pathway specific substrate, HPLC. The protocol:
As per one of the possible implementations of the present disclosure, two proteins—cinnamate-4-hydroxylate (C4H) and 4-coumaroyl CoA-ligase (4CL) were expressed as one fusion protein. Also, other two proteins which were expressed as one fusion protein were hydroxycinnamoyl-CoA quinate hydroxycinnamoyltransferase (HCT) and p-coumaroyl quinate 3′-hydroxylase (HCTC3H). The fusion gene and the corresponding fusion protein was prepared using the following method. […] The enzyme fusion constructs were made for the selected genes (Table 5). Pathway genes and the fusion constructs were individually cloned in E. coli expression vector pET28+ under T7 promoter and transformed in E. coli BL21 cells. Recombinant bacterial cells were induced with IPTG and enzyme functionality was tested with pathway specific substrates (Table 5) using lysed E. coli cell extracts. HPLC analysis was carried out to quantify the product formation and in turn shortlisting of efficient enzymes for functional pathway assembly towards Etoposide in E. coli.
The E. coli transformants were grown overnight at 37° C. in 1 ml of M9 minimal media containing ampicillin (100 mg/1), in 96-well format. The next day, 150 μl of each culture was inoculated into 3 ml M9 minimal media containing ampicillin (100 mg/1), IPTG 0.1 mM in 24-well format, and incubated at 30° C. and 200 rpm for ˜20 hours. The following day, cells were spun down and pellets were resuspended in 100 μl of lysis buffer containing 10 mM Tris-HCl pH 8, 5 mM MgCl2, 1 mM CaCl2) and complete mini protease inhibitor EDTA-free (3 tablets/100 ml) (Hoffmann-La Roche, Basel, Switzerland) and frozen at −80° C. for at least 15 minutes to promote cell lysis. Pellets were thawed at room temperature and 50 μl of DNase mix (1 μl of 1.4 mg/ml DNase in H2O (˜80000 u/ml), 1.2 μl of MgCl2 500 mM and 47.8 μl of 4×PBS buffer solution) was added to each well. Plates were shaken at 500 rpm for 5 min at room temperature to allow degradation of genomic DNA. Plates were spun down at 4000 rpm for 30 min at 4° C. and six μl of the lysates were used in in vitro using appropriate substrates for enzymes as per Table 6. In each case, the resulting compounds were measured by HPLC. Results were analysed in comparison with the lysates expressing the corresponding controls (the empty plasmid). […]
For B1, the “enzyme activity (in words)” value is “highest enzyme activity”.

Consider B2, for which the “enzyme activity (in words)” value is “desirable enzyme activity”.

B3: the enzyme activity was 99%.

B4 came in with an enzyme activity of 99%.

B5 showed an enzyme activity of 95%.

B6 displayed an enzyme activity of 96%.

On to B7, for which the enzyme activity is listed as 94%.

With B8, the enzyme activity is listed as 88%.

B9 had an enzyme activity of 61%.
